± gives the standard deviation of the averaged measurements.
Assay: total protein half-life in vivo (active degradation + dilution); higher = more stable protein
[1] = wild type E. coli NCM3722, growth: C-lim chemostat, doubling time 3 h
[2] = E. coli NCM3722 delta-clpP delta-lon delta-hslV, growth: N-lim chemostat, doubling time 6 h
[3] = E. coli NCM3722 delta-clpP, growth: N-lim chemostat, doubling time 6 h
[4] = E. coli NCM3722 delta-hslV, growth: N-lim chemostat, doubling time 6 h
[5] = E. coli NCM3722 delta-lon, growth: N-lim chemostat, doubling time 6 h
[6] = E. coli NCM3722 delta-smpB, growth: N-lim chemostat, doubling time 6 h
[7] = wild type E. coli NCM3722, growth: C-lim chemostat, doubling time 6 h
[8] = wild type E. coli NCM3722, growth: C-lim chemostat, doubling time 12 h
[9] = wild type E. coli NCM3722, growth: N-lim chemostat, doubling time 6 h
[10] = wild type E. coli NCM3722, growth: N-lim chemostat, doubling time 12 h
[11] = wild type E. coli NCM3722, growth: P-lim chemostat, doubling time 6 h
[12] = wild type E. coli NCM3722, growth: P-lim chemostat, doubling time 12 h

Row | Sequence | total protein half-life in vivo [1] [h] | total protein half-life in vivo [2] [h] | total protein half-life in vivo [3] [h] | total protein half-life in vivo [4] [h] | total protein half-life in vivo [5] [h] | total protein half-life in vivo [6] [h] | total protein half-life in vivo [7] [h] | total protein half-life in vivo [8] [h] | total protein half-life in vivo [9] [h] | total protein half-life in vivo [10] [h] | total protein half-life in vivo [11] [h] | total protein half-life in vivo [12] [h]
1 | MPLRRFSPGLKAQFAFGMVFLFVQPDASAADISAQQIGGVIIPQAFSQALQDGMSVPLYIHLAGSQGRQDDQRIGSAFIWLDDGQLRIRKIQLEESEDNASVSEQTRQQLMALANAPFNEALTIPLTDNAQLDLSLRQLLLQLVVKREALGTVLRSRSEDIGQSSVNTLSSNLSYNLGVYNNQLRNGGSNTSSYLSLNNVTALREHHVVLDGSLYGIGSGQQDSELYKAMYERDFAGHRFAGGMLDTWNLQSLGPMTAISAGKIYGLSWGNQASSTIFDSSQSATPVIAFLPAAGEVHLTRDGRLLSVQNFTMGNHEVDTRGLPYGIYDVEVEVIVNGRVISKRTQRVNKLFSRGRGVGAPLAWQVWGGSFHMDRWSENGKKTRPAKESWLAGASTSGSLSTLSWAATGYGYDNQAVGETRLTLPLGGAINVNLQNMLASDSSWSSIGSISATLPGGFSSLWVNQEKTRIGNQLRRSDADNRAIGGTLNLNSLWSKLGTFSISYNDDRRYNSHYYTADYYQNVYSGTFGSLGLRAGIQRYNNGDSNANTGKYIALDLSLPLGNWFSAGMTHQNGYTMANLSARKQFDEGTIRTVGANLSRAISGDTGDDKTLSGGAYAQFDARYASGTLNVNSAADGYVNTNLTANGSVGWQGKNIAASGRTDGNAGVIFNTGLEDDGQISAKINGRIFPLNGKRNYLPLSPYGRYEVELQNSKNSLDSYDIVSGRKSRLTLYPGNVAVIEPEVKQMVTVSGRIRAEDGTLLANARINNHIGRTRTDENGEFVMDVDKKYPTIDFRYSGNKTCEVALELNQARGAVWVGDVVCSGLSSWAAVTQTGEENES | 2.91 |  |  |  |  |  |  |  |  |  |  | 
2 | MNLSTKQKQHLKGLAHPLKPVVLLGSNGLTEGVLAEIEQALEHHELIKVKIATEDRETKTLIVEAIVRETGACNVQVIGKTLVLYRPTKERKISLPR [P0AGK4] | 3.11 ± 0.53 | 7 ± 0.84 | 5.91 ± 0.59 | 6.12 ± 0.24 | 6.47 ± 0.075 | 5.7 ± 0.41 | 5.73 ± 0.12 | 9.46 ± 1.2 | 4.83 ± 0.25 | 10.8 ± 2.1 | 4.88 ± 1.1 | 12.6 ± 3
3 | MFEITGINVSGALKAVVMATGFENPLSSVNEIETKLSALLGSETTGEILFDLLCANGPEWNRFVTLEMKYGRIMLDTAKIIDEQDVPTHILSKLTFTLRNHPEYLEASVLSPDDVRQVLSMDF | 2.73 | 5.32 ± 0.4 |  |  |  |  | 5.11 |  |  |  |  | 
4 | MGSINLRIDDELKARSYAALEKMGVTPSEALRLMLEYIADNERLPFKQTLLSDEDAELVEIVKERLRNPKPVRVTLDEL [P0C079] |  | 3.41 ± 0.82 | 1.33 |  |  |  | 1.45 |  |  |  |  | 2.75
5 | MTEPLTETPELSAKYAWFFDLDGTLAEIKPHPDQVVVPDNILQGLQLLATASDGALALISGRSMVELDALAKPYRFPLAGVHGAERRDINGKTHIVHLPDAIARDISVQLHTVIAQYPGAELEAKGMAFALHYRQAPQHEDALMTLAQRITQIWPQMALQQGKCVVEIKPRGTSKGEAIAAFMQEAPFIGRTPVFLGDDLTDESGFAVVNRLGGMSVKIGTGATQASWRLAGVPDVWSWLEMITTALQQKRENNRSDDYESFSRSI | 2.55 | 5.34 ± 2.1 | 3.13 ± 0.27 | 2.4 ± 0.1 | 2.67 ± 0.028 | 2.32 ± 0.11 | 4.3 ± 0.26 | 6.12 ± 0.22 | 2.5 ± 0.13 | 3.59 ± 0.55 | 3.2 ± 1 | 6.94 ± 0.087
6 | MKILVTGGAGFIGSAVVRHIINNTQDSVVNVDKLTYAGNRESLADVSDSERYVFEHADICDAPAMARIFAQHQPDAVMHLAAESHVDRSITGPAAFIETNIVGTYVLLEAARNYWSALDSDKKNSFRFHHISTDEVYGDLPHPDEVNNTEELPLFTETTAYAPSSPYSASKASSDHLVRAWKRTYGLPTIVTNCSNNYGPYHFPEKLIPLVILNALEGKALPIYGKGDQIRDWLYVEDHARALYTVVTEGKAGETYNIGGHNEKKNIDVVLTICDLLDEIVPKEKSYREQITYVADRPGHDRRYAIDAEKIGRALGWKPQETFESGIRKTVEWYLSNTKWVDNVKSGAYQSWIEQNYEGRQ |  | 5.58 |  | 5.31 |  |  |  |  | 5.85 |  | 7.66 | 
7 | MYDFVIIGGGIIGMSTAMQLIDVYPDARIALLEKESAPACHQTGHNSGVIHAGVYYTPGSLKAQFCLAGNRATKAFCDQNGIRYDNCGKMLVATSDLEMERMRALWERTAANGIEREWLNADELREREPNITGLGGIFVPSSGIVSYRDVTAAMAKIFQSRGGEIIYNAEVSGLNEHKNGVVIRTRQGGEYEASTLISCSGLMADRLVKMLGLEPGFIICPFRGEYFRLAPEHNQIVNHLIYPIPDPAMPFLGVHLTRMIDGSVTVGPNAVLAFKREGYRKRDFSFSDTLEILGSSGIRRVLQNHLRSGLGEMKNSLCKSGYLRLVQKYCPRLSLSDLQPWPAGVRAQAVSPDGKLIDDFLFVTTPRTIHTCNAPSPAATSAIPIGAHIVSKVQTLLASQSNPGRTLRAARSVDALHAAFNQ | 2.7 ± 0.3 | 5.44 ± 0.2 | 6.32 ± 1.6 | 5.3 ± 0.37 | 4.94 ± 0.065 | 4.58 ± 0.47 | 5.48 ± 0.23 | 9.35 ± 0.39 | 5.4 ± 0.44 | 9.37 ± 0.29 | 4.51 ± 0.93 | 10.8 ± 0.21
8 | MAMPLSLLIGLRFSRGRRRGGMVSLISVISTIGIALGVAVLIVGLSAMNGFERELNNRILAVVPHGEIEAVDQPWTNWQEALDHVQKVPGIAAAAPYINFTGLVESGANLRAIQVKGVNPQQEQRLSALPSFVQGDAWRNFKAGEQQIIIGKGVADALKVKQGDWVSIMIPNSNPEHKLMQPKRVRLHVAGILQLSGQLDHSFAMIPLADAQQYLDMGSSVSGIALKMTDVFNANKLVRDAGEVTNSYVYIKSWIGTYGYMYRDIQMIRAIMYLAMVLVIGVACFNIVSTLVMAVKDKSGDIAVLRTLGAKDGLIRAIFVWYGLLAGLFGSLCGVIIGVVVSLQLTPIIEWIEKLIGHQFLSSDIYFIDFLPSELHWLDVFYVLVTALLLSLLASWYPARRASNIDPARVLSGQ | 3.32 ± 0.27 | 5.8 ± 0.74 | 6.23 ± 0.16 | 5.66 ± 0.51 | 5.4 ± 0.27 | 5.77 ± 0.5 | 5.759 ± 0.033 |  | 5.94 ± 0.43 | 13.9 ± 2.2 | 6.023 ± 0.042 | 12.2 ± 0.26
